Measured values: the supplement of paper PMC10065799, “High-throughput profiling of sequence recognition by tyrosine kinases and SH2 domains using bacterial peptide display” (eLife, 2023)

What was measured:
[1] = target: SHP2-C SH2; assay: SH2 binding enrichment of the phosphorylated peptide, bacterial display (enrichment ratio); higher = better substrate or ligand; peptides without Tyr show the background
[2] = target: c-Src SH2; assay: as above
[3] = target: Grb2 SH2 (UniProt P62993); assay: as above
Sequence of Grb2 SH2 (P62993 whole entry, looked up): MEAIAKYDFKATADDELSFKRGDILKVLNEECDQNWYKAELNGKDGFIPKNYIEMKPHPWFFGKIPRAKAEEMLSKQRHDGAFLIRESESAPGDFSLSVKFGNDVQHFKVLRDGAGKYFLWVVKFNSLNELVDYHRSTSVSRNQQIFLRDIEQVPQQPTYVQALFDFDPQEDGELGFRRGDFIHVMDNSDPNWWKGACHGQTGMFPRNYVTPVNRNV

[4] = tested on: c-Src; assay: phosphorylation enrichment, bacterial display (enrichment ratio); higher = better substrate or ligand; peptides without Tyr show the background
[5] = target: FGFR3 (UniProt P22607); assay: as above
Sequence of FGFR3 (P22607 whole entry, looked up): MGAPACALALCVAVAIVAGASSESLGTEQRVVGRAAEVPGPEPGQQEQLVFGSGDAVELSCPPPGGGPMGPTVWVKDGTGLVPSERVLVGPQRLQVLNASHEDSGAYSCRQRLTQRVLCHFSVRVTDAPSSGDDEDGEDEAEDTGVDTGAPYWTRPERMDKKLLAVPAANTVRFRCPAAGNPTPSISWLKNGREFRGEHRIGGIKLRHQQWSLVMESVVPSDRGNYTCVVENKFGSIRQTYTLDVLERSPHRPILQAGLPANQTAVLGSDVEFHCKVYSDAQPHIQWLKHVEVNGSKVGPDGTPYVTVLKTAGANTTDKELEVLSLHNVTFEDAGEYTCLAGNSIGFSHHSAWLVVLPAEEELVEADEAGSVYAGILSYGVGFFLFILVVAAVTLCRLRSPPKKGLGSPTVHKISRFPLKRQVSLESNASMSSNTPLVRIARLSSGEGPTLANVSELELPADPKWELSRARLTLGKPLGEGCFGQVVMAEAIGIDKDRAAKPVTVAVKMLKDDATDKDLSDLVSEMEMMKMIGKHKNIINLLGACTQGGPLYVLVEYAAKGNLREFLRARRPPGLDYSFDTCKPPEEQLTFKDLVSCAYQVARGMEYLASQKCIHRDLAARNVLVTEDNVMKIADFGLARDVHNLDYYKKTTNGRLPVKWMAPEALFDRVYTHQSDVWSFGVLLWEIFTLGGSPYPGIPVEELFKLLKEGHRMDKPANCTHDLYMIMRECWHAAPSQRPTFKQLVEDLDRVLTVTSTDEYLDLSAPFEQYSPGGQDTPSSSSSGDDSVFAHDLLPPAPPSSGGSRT

[6] = target: MERTK (UniProt Q12866); assay: as above
[7] = target: Fes (UniProt P07332); assay: as above
[8] = target: Jak2 (UniProt O60674); assay: as above
Sequence of Jak2 (O60674 whole entry, looked up): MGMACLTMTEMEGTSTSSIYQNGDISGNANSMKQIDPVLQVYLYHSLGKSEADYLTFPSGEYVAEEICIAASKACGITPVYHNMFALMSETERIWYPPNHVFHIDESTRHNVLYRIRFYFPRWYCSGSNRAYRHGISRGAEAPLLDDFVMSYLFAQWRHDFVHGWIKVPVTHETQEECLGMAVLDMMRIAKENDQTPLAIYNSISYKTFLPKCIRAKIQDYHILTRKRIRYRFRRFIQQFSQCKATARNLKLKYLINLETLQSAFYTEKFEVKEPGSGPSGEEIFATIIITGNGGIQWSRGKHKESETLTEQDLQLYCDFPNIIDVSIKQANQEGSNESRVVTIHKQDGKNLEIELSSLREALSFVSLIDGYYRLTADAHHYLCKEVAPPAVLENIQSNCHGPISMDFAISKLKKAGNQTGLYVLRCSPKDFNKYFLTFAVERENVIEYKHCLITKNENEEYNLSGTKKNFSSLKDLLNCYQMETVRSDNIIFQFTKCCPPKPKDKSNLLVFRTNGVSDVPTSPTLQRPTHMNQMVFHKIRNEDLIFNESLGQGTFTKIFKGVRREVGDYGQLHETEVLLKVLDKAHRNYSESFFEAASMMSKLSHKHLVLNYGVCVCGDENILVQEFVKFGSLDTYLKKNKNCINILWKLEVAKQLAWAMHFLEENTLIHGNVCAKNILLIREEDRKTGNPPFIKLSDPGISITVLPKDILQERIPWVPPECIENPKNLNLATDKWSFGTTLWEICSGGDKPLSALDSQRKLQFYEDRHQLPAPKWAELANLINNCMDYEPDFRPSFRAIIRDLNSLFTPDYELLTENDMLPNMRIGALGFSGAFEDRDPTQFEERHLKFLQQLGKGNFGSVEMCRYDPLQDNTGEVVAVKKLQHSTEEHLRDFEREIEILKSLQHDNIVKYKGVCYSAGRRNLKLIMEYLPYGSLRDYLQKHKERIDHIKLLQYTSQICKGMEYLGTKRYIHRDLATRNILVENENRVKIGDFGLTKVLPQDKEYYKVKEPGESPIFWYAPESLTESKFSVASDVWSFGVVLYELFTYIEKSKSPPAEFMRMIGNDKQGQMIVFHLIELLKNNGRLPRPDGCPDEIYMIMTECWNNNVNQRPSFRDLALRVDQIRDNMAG

[9] = target: EPHB1 (UniProt P54762); assay: as above
[10] = tested on: AncSZ; assay: as above
[11] = tested on: Fer (mouse); assay: as above
[12] = target: Fyn (UniProt P06241); assay: as above
[13] = tested on: c-Abl (mouse); assay: as above
[14] = target: FGFR1 (UniProt P11362); assay: as above
Sequence of FGFR1 (P11362 whole entry, looked up): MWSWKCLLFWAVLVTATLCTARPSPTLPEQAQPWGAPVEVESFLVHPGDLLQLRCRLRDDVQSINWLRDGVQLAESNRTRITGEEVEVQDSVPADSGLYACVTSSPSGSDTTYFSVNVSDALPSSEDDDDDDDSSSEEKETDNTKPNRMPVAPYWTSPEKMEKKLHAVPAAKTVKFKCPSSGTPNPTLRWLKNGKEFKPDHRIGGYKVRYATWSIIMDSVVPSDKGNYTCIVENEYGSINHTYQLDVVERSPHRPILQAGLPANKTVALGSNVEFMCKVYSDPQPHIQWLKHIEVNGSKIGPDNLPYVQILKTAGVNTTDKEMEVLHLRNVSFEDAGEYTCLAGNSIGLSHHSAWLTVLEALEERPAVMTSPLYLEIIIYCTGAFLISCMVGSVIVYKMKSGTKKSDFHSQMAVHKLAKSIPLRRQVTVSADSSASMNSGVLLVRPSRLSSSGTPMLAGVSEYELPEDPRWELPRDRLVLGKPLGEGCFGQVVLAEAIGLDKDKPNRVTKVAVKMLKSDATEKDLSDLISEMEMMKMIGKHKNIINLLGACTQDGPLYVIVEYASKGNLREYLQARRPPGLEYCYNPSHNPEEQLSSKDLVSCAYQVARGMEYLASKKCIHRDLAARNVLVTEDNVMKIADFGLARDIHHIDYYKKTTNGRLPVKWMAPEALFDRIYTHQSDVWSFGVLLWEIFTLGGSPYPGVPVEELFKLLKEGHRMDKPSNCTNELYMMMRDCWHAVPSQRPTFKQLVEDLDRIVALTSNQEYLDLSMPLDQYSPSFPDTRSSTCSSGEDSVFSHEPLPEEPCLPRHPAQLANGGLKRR

[15] = target: EPHB2 (UniProt P29323); assay: as above
Sequence of EPHB2 (P29323 whole entry, looked up): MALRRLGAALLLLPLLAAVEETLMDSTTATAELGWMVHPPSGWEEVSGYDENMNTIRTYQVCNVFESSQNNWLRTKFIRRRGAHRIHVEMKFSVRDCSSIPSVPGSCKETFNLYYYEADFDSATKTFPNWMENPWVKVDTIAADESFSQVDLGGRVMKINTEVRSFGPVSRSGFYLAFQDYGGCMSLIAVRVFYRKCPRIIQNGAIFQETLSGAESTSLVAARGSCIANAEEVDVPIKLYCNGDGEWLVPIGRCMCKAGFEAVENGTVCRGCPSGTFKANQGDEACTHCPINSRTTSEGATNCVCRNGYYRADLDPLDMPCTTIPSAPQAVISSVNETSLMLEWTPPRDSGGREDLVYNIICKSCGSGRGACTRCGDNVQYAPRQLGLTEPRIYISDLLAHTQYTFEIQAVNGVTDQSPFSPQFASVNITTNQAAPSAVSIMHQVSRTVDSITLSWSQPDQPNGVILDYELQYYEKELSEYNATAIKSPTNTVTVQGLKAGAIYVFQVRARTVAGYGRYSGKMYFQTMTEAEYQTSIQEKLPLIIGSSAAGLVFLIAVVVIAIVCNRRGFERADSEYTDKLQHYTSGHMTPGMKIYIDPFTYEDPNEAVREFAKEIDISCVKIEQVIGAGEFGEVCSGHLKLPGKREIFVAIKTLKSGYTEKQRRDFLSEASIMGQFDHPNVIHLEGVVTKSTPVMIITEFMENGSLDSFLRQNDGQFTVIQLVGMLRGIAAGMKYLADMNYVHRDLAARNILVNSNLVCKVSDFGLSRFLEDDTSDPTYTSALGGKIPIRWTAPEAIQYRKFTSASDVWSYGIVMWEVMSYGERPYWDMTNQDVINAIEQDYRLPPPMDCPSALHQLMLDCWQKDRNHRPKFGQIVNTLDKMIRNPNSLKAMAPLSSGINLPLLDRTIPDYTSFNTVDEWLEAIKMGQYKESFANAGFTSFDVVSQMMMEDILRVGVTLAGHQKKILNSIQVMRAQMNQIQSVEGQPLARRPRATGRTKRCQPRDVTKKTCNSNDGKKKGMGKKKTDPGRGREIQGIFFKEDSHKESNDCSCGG

[16] = target: Hck (UniProt P08631); assay: as above
Sequence of Hck (P08631 whole entry, looked up, the tested form may be a part): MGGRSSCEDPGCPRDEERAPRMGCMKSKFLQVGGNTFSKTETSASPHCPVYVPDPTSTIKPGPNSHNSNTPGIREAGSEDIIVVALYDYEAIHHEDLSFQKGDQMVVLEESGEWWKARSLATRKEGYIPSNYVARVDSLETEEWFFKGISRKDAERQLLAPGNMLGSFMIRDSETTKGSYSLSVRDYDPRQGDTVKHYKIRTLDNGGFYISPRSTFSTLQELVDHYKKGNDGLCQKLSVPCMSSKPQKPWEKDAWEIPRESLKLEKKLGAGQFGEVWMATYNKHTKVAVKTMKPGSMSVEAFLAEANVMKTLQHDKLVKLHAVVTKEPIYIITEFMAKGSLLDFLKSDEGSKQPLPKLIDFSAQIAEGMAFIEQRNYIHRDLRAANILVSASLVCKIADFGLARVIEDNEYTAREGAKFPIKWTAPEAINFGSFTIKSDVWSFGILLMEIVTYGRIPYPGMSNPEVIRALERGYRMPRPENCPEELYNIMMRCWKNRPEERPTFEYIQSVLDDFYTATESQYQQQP
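Wherever SH2 binding enrichment of the phosphorylated peptide, bacterial display is given: peptide library displayed on the E. coli surface as eCPX fusions, selected cells deep-sequenced, score is each peptide's frequency after selection divided by its frequency in the input.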
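Wherever phosphorylation enrichment, bacterial display is given: 11-residue human phosphosite peptides and single-mutation variants displayed on the E. coli surface, counted by deep sequencing, each peptide's frequency after selection divided by its frequency in the unselected input library; frequency after pTyr selection over input frequency; kinase dosed for 20-30% of maximal phosphorylation in three min.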

Sequence	SH2 binding enrichment [1]	SH2 binding enrichment [2]	SH2 binding enrichment [3]	phosphorylation enrichment [4]	phosphorylation enrichment [5]	phosphorylation enrichment [6]	phosphorylation enrichment [7]	phosphorylation enrichment [8]	phosphorylation enrichment [9]	phosphorylation enrichment [10]	phosphorylation enrichment [11]	phosphorylation enrichment [12]	phosphorylation enrichment [13]	phosphorylation enrichment [14]	phosphorylation enrichment [15]	phosphorylation enrichment [16]
RLNAIYQNNLT [GSR_Y158]	0.986	0.796	5.31	1.08	0.665	0.414	0.75	0.565	0.632	0.813	1.06	0.772	0.539	0.502	0.609	1.25
RDHYGYRQSVT [CD55_Y245]	0.775	0.484	0.98	0.822	0.339	0.774	0.794	0.455	0.883	1.22	0.748	0.866	0.794	0.747	0.472	0.806
PFRQWYESHFA [RPS8_Y113_YF]	1.04	1.07	1.22	0.972	0.524	0.906	1.11	0.963	0.827	1.08	3.73	0.586	0.764	0.731	0.786	0.68
NPQKSYFILLY [WAS_Y83_R86L]	0.827	0.573	0.914	0.416	1.38	0.396	1.19	1.19	0.657	0.958	0.437	0.421	0.719	1.79	0.551	0.434
HYPDVYAWEQL [ALX3_Y181_R183W]	0.928	0.723	0.716	5.25	1.16	3.27	1.31	0.847	0.913	1.14	13.2	8.69	0.404	1.19	0.865	4.12
EEGRVYVFRLS [ITGAE_Y549_YF]	0.806	0.665	1.05	0.625	0.836	0.475	1.37	1.14	0.606	1.13	0.533	0.509	0.812	0.508	0.605	0.617
GGQVFYNSEFG [FLT4_Y1333_YF]	0.735	0.45	0.623	0.838	0.766	0.546	1.11	1.25	0.619	1.09	0.53	0.479	0.884	0.551	0.617	0.532
QAIDEYEKWLE [MAP9_Y603_N601D]	0.805	0.432	0.757	0.479	1.34	0.996	1.41	1.46	1.06	1.5	0.581	0.66	0.85	0.515	0.716	0.607
GRKTLYSFFSP [UNG_Y8_Q4R]	0.978	1.17	1.57	1.9	0.641	12	0.825	0.91	0.709	0.529	3.82	1.13	0.56	0.571	0.603	2.26
VRALTYCDLHK [KCNH2_Y827]	0.968	0.715	0.885	0.392	0.591	0.453	0.874	0.605	0.603	0.74	0.531	0.499	0.656	0.452	0.704	0.582
NVADHYGVFKP [ATP6V0D2_Y271_YF]	0.96	0.717	1.06	4.14	0.408	0.435	0.691	0.404	0.3	0.557	0.455	4.49	0.538	0.443	0.441	3.18
TRSFKCLLLSM [NF1_Y491_Y491C_YF]	0.787	0.912	1.11	0.4	0.609	0.444	1.08	1.09	0.551	0.969	0.496	0.474	0.713	0.531	0.581	0.492
PVGDVYKKKGL [NMNAT1_Y55_A54V]	0.748	0.55	0.837	0.488	0.915	0.491	0.557	0.405	0.451	0.534	0.487	0.465	0.417	0.498	0.567	0.646
LQEQNYLAVDS [FAM114A1_Y115]	0.53	0.644	0.725	0.673	3.19	1.17	2.5	1.39	6.07	2.1	4.67	1.47	0.817	3.67	2.83	0.946
DKGTLYIAEQI [PLBD1_Y375_V377A]	0.54	0.44	0.664	0.383	0.666	0.346	0.887	0.743	0.565	0.763	0.372	0.459	0.65	0.441	0.446	0.447
WQQQSYLGSGI [CTNNB1_Y30_D32G]	0.664	0.499	0.858	0.421	0.493	0.357	0.61	0.544	0.362	0.748	0.389	0.372	0.521	0.634	0.469	0.471
VSLLPYFPAIM [IPO4_Y518_A513V]	0.848	0.602	0.902	0.443	0.873	0.369	1.32	2.06	0.646	1.12	0.508	0.541	0.754	0.719	0.657	0.541

Sequence	SH2 binding enrichment [1]	SH2 binding enrichment [2]	SH2 binding enrichment [3]	phosphorylation enrichment [4]	phosphorylation enrichment [5]	phosphorylation enrichment [6]	phosphorylation enrichment [7]	phosphorylation enrichment [8]	phosphorylation enrichment [9]	phosphorylation enrichment [10]	phosphorylation enrichment [11]	phosphorylation enrichment [12]	phosphorylation enrichment [13]	phosphorylation enrichment [14]	phosphorylation enrichment [15]	phosphorylation enrichment [16]
HRERPYGGGGG [FUS_Y526_R521H]	1.05	1.18	1.17	0.523	0.449	0.557	0.714	0.386	0.483	0.487	0.407	0.454	0.556	0.553	0.265	0.439
SKAFAYVHFDS [PABPC5_Y149_G146A_YF]	0.913	1.44	0.942	0.424	0.828	0.443	1.36	1.09	0.447	0.935	0.537	0.382	0.669	0.449	0.483	0.51
SWDKRYCEAGC [ITGA2B_Y197_F202C]	1.23	0.651	0.957	0.357	0.541	0.401	0.887	0.641	0.446	0.859	0.383	0.454	0.984	0.507	0.41	0.417
QLHREYCLSPR [HJURP_Y445]	1.17	1	1.09	1.34	0.733	0.887	1.12	0.877	0.784	1.38	0.765	0.92	1.13	0.898	0.786	0.889
MPQNEYIELHR [NSA2_Y6]	0.767	0.601	0.808	0.66	1.03	0.338	0.767	0.7	0.696	0.9	0.325	0.444	0.497	1.95	0.673	0.743
SGFESYGSSSS [RPA2_Y9_Y14S]	0.737	0.425	0.735	0.541	0.599	0.502	0.658	0.555	0.47	0.651	0.521	0.453	0.633	0.461	0.617	0.484
AEEEIYGEFEA [Src_opt_1995]	0.69	0.483	0.774	1.14	1	0.58	1.49	1.29	0.808	1.51	0.923	1.26	0.97	0.694	0.75	1.12
CDYKKYGKGLR [ZNF445_Y433_Y428C]	0.805	0.6	0.882	0.299	0.445	0.335	0.576	0.563	0.284	0.565	0.318	0.364	0.525	0.404	0.362	0.349
SFTDPYAQPSL [KMT2D_Y2378_P2382S_YF]	0.759	2.12	0.777	0.447	0.67	0.429	0.806	0.689	0.47	0.743	0.447	0.481	0.747	0.508	0.526	0.581
RPDSPYSRPHD [DOK2_Y271]	0.422	1.29	0.729	0.372	0.485	0.369	0.519	0.436	0.258	0.71	0.379	0.317	0.419	0.364	0.49	0.367
PLRADYLIARV [HLCS_Y635]	0.711	0.46	0.896	0.582	0.495	0.717	1.1	0.747	0.312	0.777	0.515	0.319	0.853	0.8	0.487	0.461
NARGLYYKLHN [GATA2_Y376_C373R]	0.866	1.23	1.02	0.695	1.02	2.59	0.975	2.12	0.595	1.11	0.496	0.572	0.874	1.08	0.586	0.954
KSMFVYCTPNK [ATP2A2_Y497_S495F]	0.484	0.679	0.925	0.494	0.768	0.452	1.19	1.12	0.6	1.22	0.565	0.473	1.05	0.587	0.673	0.568
YRASYYRKGGC [ALK_Y1283]	0.512	0.484	0.691	0.552	0.513	0.561	0.677	0.678	0.57	0.808	0.636	0.485	0.653	0.514	0.435	0.488
LKGQVYILGGE [ASS1_Y359_R363G]	0.812	0.529	0.952	1.13	1.28	1.05	1.93	1.62	1.13	1.33	1.02	0.995	1.32	1.06	1.07	0.824
NHQYDYTFDWT [CSNK1A1_Y294]	0.561	3	1.07	1.62	2.67	1.04	0.991	0.899	0.606	1.38	0.569	0.66	0.646	3.99	0.767	0.543
